Test results taken from paper PMC11142304.

Assays:
[1] = target: LnaB (recombinant, ITC and AUC) (L. pneumophila); assay: ITC
[2] = target: ADP-ribosylated ubiquitin (ADPR-Ub) (UniProt P0CG48); assay: ITC

| Substance | stoichiometry N [1] | Kd [2] [µM] |
| --- | --- | --- |
| Actin (Sangon Biotech, A001041) (from UniProt P60709 1-375) (natural protein) | 0.84 | – |
| MavL_N322A | – | 5.96 |
